The supplement of paper PMC10126150
± gives the standard deviation of the averaged measurements.

Tested on: ATP
Experiment: switch fluorescence ratio, 500 uM ATP over buffer (Cy3 cluster intensity, sum of 5 cycles each) (fold (ratio)); higher = stronger signal-on switching upon ATP binding; sequences stand for … in TCGTCGGCAGCGTCAGATGTGTATAAGAGACAGTTTTTTTTTTTTTTTTTTTTTTTTT…TC
Conditions: aptamer strand: ATP DNA aptamer (quencher-CACCTGGGGGAGTATTGCGGAGGAAGG + anchor), 100 nM annealed; ATP concentration: 500 uM
Procedure, shortened: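 Values give the fluorescence ratio for each switch-domain sequence, averaged from per-cluster ratios of summed target-cycle to summed buffer-cycle Cy3 intensity. The Cy3-labelled switching-strand clusters sat on a modified Illumina MiSeq flow-cell, were annealed to 100 nM quencher-labelled ATP aptamer, and were imaged in selection buffer, then after 15 min with 500 uM ATP at 22 °C. Five cycles ran with NaOH stripping and re-annealing between them, and clusters outside 100-1000 RFU were excluded.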
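Also: ATP exposure 15 min at 22 °C before imaging.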

Sequence	switch fluorescence ratio
TTTATTATGC	1.03 ± 0.026
TTGTGGGGTT	0.984 ± 0.048
GTTTGCCATG	0.998 ± 0.047
ATTGGATAAT	0.9967 ± 0.0091
TACGGGGTGC	1.07 ± 0.095
TCGGTGAGAG	1.03 ± 0.019
CAAGTTAAAG	1.01 ± 0.015
GGTACGAGGT	0.972 ± 0.019
TTTCGTTCAT	1.033 ± 0.0078
GCTCTACTGG	1.024 ± 0.0021
GTTCATGGTT	1.01 ± 0.054
AGGTTGGCGT	0.995 ± 0.029
TGGGCTATAG	1.03 ± 0.032
CTGAGTGATG	1.01 ± 0.02
TAGGGAAGGG	0.976 ± 0.032
CATGGTAGGA	0.975 ± 0.026
GGGCTTAACG	0.982 ± 0.014
TATGAGGCTT	0.999 ± 0.028
TAACCCGGGC	1.03 ± 0.066
TCGTCCGGTA	1.29 ± 0.04
GATTGATTTA	1 ± 0.021
TGTGAGGCGC	1 ± 0.044
GCCATATACA	1.035 ± 0.01
TGTTTAGTTT	1.01 ± 0.033
CCGAAGGGGC	1.52 ± 0.083

Sequence	switch fluorescence ratio
AAAAGTAGTT	1.01 ± 0.038
GCACCTGGAT	1.01 ± 0.027
GTGGGATCTG	0.9894 ± 0.008
GGGGTAGGGT	0.997 ± 0.032
TTGCCATCCT	0.98 ± 0.042
CTGGGTTGGT	0.972 ± 0.024
AACGGTCTTT	0.997 ± 0.014
GGCTTGGGAA	0.968 ± 0.027
AGGTTGGATT	0.9706 ± 0.0039
TGATTGAGGG	0.9572 ± 0.0056
GACGATGTAA	1.18 ± 0.018
CAGGGGGCAG	1.05 ± 0.07
CGGCTTTTTA	0.9588 ± 0.0056
ATAAAGACTT	0.9755 ± 0.0058
TTGGGCATGG	1.02 ± 0.048
GTGCTGGTTT	1.05 ± 0.14
TGAGTACGGG	0.9844 ± 0.0025
GGGTGCATGT	0.99 ± 0.02
ATACGCTTTT	1.14 ± 0.14
GGGTCGGGTT	0.972 ± 0.037
TACACTTCTC	1.08 ± 0.025
TAGGGGTACA	1.03 ± 0.016
TGACGTCAGT	0.972 ± 0.014
CACGGGGGGC	1.02 ± 0.054
GGACATATTA	1 ± 0.028

Sequence	switch fluorescence ratio
GGGGTATATT	0.9938 ± 0.0062
TAGCATGCGG	1.01 ± 0.019
AGTGGGGGTC	1.02 ± 0.021
TTAGCCTCTT	0.996 ± 0.032
TTGGTTCGGA	0.993 ± 0.015
GCGTAATCTT	0.988 ± 0.035
GCCCAGTCAT	0.997 ± 0.023
TCAGGGGGGC	1.28 ± 0.62
CCAAGTAAGG	1.08 ± 0.031
GCGGGTCACC	0.992 ± 0.01
TCGGTTTATG	0.994 ± 0.023
GACAGGTGAA	2.27 ± 0.041
ACTTCGTTCT	1.03 ± 0.034
TTAGTTGA	0.999 ± 0.015
ACGATGTGCT	0.982 ± 0.015
GTTTGTGGCG	0.959 ± 0.024
CGGGACAGCG	1.01 ± 0.0058
GCTTTCCAGA	0.9949 ± 0.0059
TATTTAATGA	1.54 ± 0.81
AGGGGTCTCA	0.9852 ± 0.0035
GTTAAATTAG	0.9875 ± 0.0056
GCAGGGGGTC	1 ± 0.021
CGGCCGGAGT	0.983 ± 0.0086
CCAATTGGTG	1.03 ± 0.016
TACTGGGGCA	0.9842 ± 0.0028

Sequence	switch fluorescence ratio
GAATTAATGG	1.02 ± 0.07
GGTGGCAGGA	1.01 ± 0.032
ATAAGTTAAA	1.07 ± 0.12
GACAAAGGAC	1.47 ± 0.09
AGGATGATGC	0.979 ± 0.026
CAAGTCAAGA	1.0299 ± 0.00028
CGTTTTTAGA	0.967 ± 0.031
GTCATGAGAT	0.9987 ± 0.0047
TTTTAATGCA	0.977 ± 0.018
CCATCGTAAT	4.84 ± 1.1
ACATTAGGGA	1.04 ± 0.058
GGGTCGATGT	1.02 ± 0.056
AAAACAAGGA	1.01 ± 0.041
TCCTAGGCGT	1.06 ± 0.12
GATGTTGCGT	1.018 ± 0.004
ACGCTTGTGC	1.08 ± 0.042
TGGTTCAAGT	0.984 ± 0.011
TTTACGGAGC	1.37 ± 0.075
TGGGTGACGA	1.01 ± 0.024
AGTTGCTTGG	1.01 ± 0.041
GACGTTTTCC	0.995 ± 0.097
GCGGGGGGTC	1.06 ± 0.091
GAAATATCAA	0.974 ± 0.039
GGGGAAAGTC	1 ± 0.032
AAGCGTTGTA	1.01 ± 0.02

Sequence	switch fluorescence ratio
GGATCCGTTG	0.978 ± 0.021
TTCGGGTCGG	0.991 ± 0.026
TTTGACAGGA	1.06 ± 0.057
GGGCATGTTG	1.02 ± 0.03
ACCGGAGTTC	1.23 ± 0.014
GTTCCTGCGG	1.075 ± 0.01
AGCCGAGTGC	1.02 ± 0.06
TGATGCCGCT	1.07 ± 0.083
TTTTTATGCG	0.999 ± 0.06
GAAGCGTTTG	0.98 ± 0.039
TTTCGGTTAA	1.09 ± 0.11
CGGGTCTTGC	0.981 ± 0.035
ATATAATGAT	1.02 ± 0.02
TATAAACTTT	1.01 ± 0.054
CGTTTACCGA	0.942 ± 0.034
TTTTTGTATT	1.03 ± 0.02
CTCTGCTCGC	4.15 ± 0.55
CGATGGAATC	1.69 ± 0.042
CGGTATGGTA	0.972 ± 0.023
TTTGGTCATA	0.983 ± 0.024
TAGAGGCCTG	1.04 ± 0.017
TGTTAGTCTT	0.969 ± 0.057
ATAGGATAGT	0.976 ± 0.015
ATCGGGGCAT	0.98 ± 0.059
GAATATGCCG	0.972 ± 0.019

Sequence	switch fluorescence ratio
GATGTGTAGA	0.999 ± 0.018
CGTACGAATG	0.9769 ± 0.007
CGGGTAGGGC	1.01 ± 0.032
TCGGGGGGGG	1 ± 0.036
TGTTTATTTC	1.03 ± 0.08
TAAATAATTT	1.01 ± 0.028
AATTGGGCCT	1.034 ± 0.003
GGTTTTGACA	0.9941 ± 0.0065
TAGTAAAGGT	1.022 ± 0.0068
GACTGCTATA	1.44 ± 0.043
TTACACGGGG	0.969 ± 0.036
AGACGCTTG	0.9961 ± 0.0042
TCATCATTTT	0.996 ± 0.0019
CAGGGACTGG	1 ± 0.072
TCCCTCAGGG	1.46 ± 0.078
AAAAAATACG	1.09 ± 0.091
CTCTGAGGGG	1.16 ± 0.1
GGGGAGGTTG	0.991 ± 0.037
GACATTATAT	1.028 ± 0.0025
GGTGCATAGC	0.9714 ± 0.0074
AGGGTTTTTT	1.02 ± 0.039
GGTGGAATCA	0.9816 ± 0.0017
ATTTTGTCGG	0.968 ± 0.018
AAATGACGGC	0.988 ± 0.15
CAATGTCTGG	1.008 ± 0.0027

Sequence	switch fluorescence ratio
TTTGAAATAC	2.2 ± 0.025
TACGGTGTGC	0.989 ± 0.024
GGTGTGCACC	1 ± 0.025
TAGTTAGGGT	0.9959 ± 0.0093
TTTGAGTCGG	0.957 ± 0.0034
AAGTTCGTAA	1.03 ± 0.0079
TTTCGGATAA	1.02 ± 0.056
CAGGCGGCG	0.991 ± 0.017
GTTCGACGGC	1.05 ± 0.095
ATAGGTAGGC	1.05 ± 0.072
GGGAGCCGGT	1.02 ± 0.015
GAGTACTGAG	1.163 ± 0.0012
AGAAAAAACA	0.986 ± 0.02
TACTGTTCGA	1.05 ± 0.016
AAAAAGCGGT	0.984 ± 0.029
TTTACTGCTT	0.981 ± 0.044
ACTTATGTGG	0.974 ± 0.018
AATCAAAAAG	0.959 ± 0.018
AGGTCTAAGG	1 ± 0.022
AGAGAGACGG	0.997 ± 0.026
GTGGCCATGC	1.01 ± 0.025
CTATAGGAGA	1.01 ± 0.044
TCGGTGGGAG	0.981 ± 0.048
TCCAGATTCT	0.9828 ± 0.0086
TTTGGAATAT	1.04 ± 0.013

Sequence	switch fluorescence ratio
TACTTTGTGA	1.1 ± 0.15
AAGTTATGGC	0.9598 ± 0.0046
CGCGGCGGGT	1.02 ± 0.034
ATTTTAATAG	0.9909 ± 0.0056
TAATTAATAC	1.08 ± 0.017
AGTGTTGCGG	0.952 ± 0.021
TTCATTAGGA	1.01 ± 0.029
CGATGGTGAA	1.02 ± 0.035
CAGGCATTAT	1.08 ± 0.043
CCAAGGGGGG	1.11 ± 0.22
GGGGCCAGCT	0.974 ± 0.043
AGAGACGCTT	1.03 ± 0.027
ATGGTATATA	0.982 ± 0.025
TGCGATGACT	1.45 ± 0.65
GGTTTGGGG	1.03 ± 0.016
GAATAAAAAC	1.01 ± 0.013
TATGGGGATT	0.991 ± 0.037
AATATTTCAT	0.966 ± 0.025
ATCGGGACGA	0.955 ± 0.0099
GGTTTCGGCA	1.01 ± 0.0045
AGGAATTTTT	0.968 ± 0.018
AGTTGAATTG	0.994 ± 0.022
GCGTTTAAGA	1.04 ± 0.021
TATTTCGAAC	1.02 ± 0.015
GAATGGTCCC	1.02 ± 0.012
